{"source": "paper PMC10397247", "assay_in_all_cases": "two-hybrid library CCNG1;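 note: natural log of median RNA to DNA barcode read ratio; higher means stronger binding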", "key": {"[1]": {"target": "T1, 4H370-bA", "T1 chain": "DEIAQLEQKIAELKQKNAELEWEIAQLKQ"}, "[2]": {"target": "T2, 4H3189-bA", "T2 chain": "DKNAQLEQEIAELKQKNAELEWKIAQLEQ"}, "[3]": {"target": "T3, 4H2697-bA", "T3 chain": "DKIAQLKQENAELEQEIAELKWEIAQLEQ"}, "[4]": {"target": "T4, 4H918-bA", "T4 chain": "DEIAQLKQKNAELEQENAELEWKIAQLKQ"}, "[5]": {"target": "T5, 4H4038-bA", "T5 chain": "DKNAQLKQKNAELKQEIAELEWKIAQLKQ"}, "[6]": {"target": "T6, 4H1193-bA", "T6 chain": "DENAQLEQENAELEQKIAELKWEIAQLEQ"}, "[7]": {"target": "T7, 4H1328-bA", "T7 chain": "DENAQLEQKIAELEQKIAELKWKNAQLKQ"}, "[8]": {"target": "T8, 4H953-bA", "T8 chain": "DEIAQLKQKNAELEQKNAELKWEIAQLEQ"}, "[9]": {"target": "T9, 4H968-bN", "T9 chain": "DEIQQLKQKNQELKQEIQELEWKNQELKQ"}, "[10]": {"target": "T10, 4H1387-bA", "T10 chain": "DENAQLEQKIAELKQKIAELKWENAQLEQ"}, "[11]": {"target": "T11, 4H568-bA", "T11 chain": "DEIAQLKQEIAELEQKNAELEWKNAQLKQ"}, "[12]": {"target": "T12, 4H1446-bA", "T12 chain": "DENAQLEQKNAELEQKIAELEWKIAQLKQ"}, "[13]": {"target": "T13, 4H1845-bA", "T13 chain": "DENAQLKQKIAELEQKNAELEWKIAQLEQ"}, "[14]": {"target": "T14, 4H454-bH", "T14 chain": "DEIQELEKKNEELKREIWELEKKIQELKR"}, "[15]": {"target": "T15, 4H3782-bA", "T15 chain": "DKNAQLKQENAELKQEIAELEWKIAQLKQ"}, "[16]": {"target": "T16, 4H72-bA", "T16 chain": "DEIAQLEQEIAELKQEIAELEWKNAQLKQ"}, "[17]": {"target": "T17, 4H2667-bA", "T17 chain": "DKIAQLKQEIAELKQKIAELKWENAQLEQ"}, "[18]": {"target": "T18, 4H3601-bA", "T18 chain": "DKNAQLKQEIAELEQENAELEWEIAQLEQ"}, "[19]": {"target": "T19, 4H967-bA", "T19 chain": "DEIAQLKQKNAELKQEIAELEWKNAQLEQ"}, "[20]": {"target": "T20, 4H607-bA", "T20 chain": "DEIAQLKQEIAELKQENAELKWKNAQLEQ"}, "[21]": {"target": "T21, 4H331-bA", "T21 chain": "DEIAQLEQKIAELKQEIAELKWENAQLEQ"}, "[22]": {"target": "T22, 4H462-bA", "T22 chain": "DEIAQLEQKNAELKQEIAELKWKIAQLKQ"}, "[23]": {"target": "T23, 4H4001-bA", "T23 chain": "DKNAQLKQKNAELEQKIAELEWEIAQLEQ"}, "[24]": {"target": "T24, 4H2576-bA", "T24 chain": "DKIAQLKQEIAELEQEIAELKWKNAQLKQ"}, "[25]": {"target": "T25, 4H3592-bA", "T25 chain": "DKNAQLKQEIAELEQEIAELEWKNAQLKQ"}, "[26]": {"target": "T26, 4H1369-bA", "T26 chain": "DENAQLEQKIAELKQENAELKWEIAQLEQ"}, "[27]": {"target": "T27, 4H797-bA", "T27 chain": "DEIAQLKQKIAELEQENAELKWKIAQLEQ"}, "[28]": {"target": "T28, 4H3843-bA", "T28 chain": "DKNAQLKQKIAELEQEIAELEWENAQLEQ"}, "[29]": {"target": "T29, 4H3907-bA", "T29 chain": "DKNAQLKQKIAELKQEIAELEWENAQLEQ"}, "[30]": {"target": "T30, 4H687-bA", "T30 chain": "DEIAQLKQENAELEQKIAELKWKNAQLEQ"}, "[31]": {"target": "T31, 4H883-bA", "T31 chain": "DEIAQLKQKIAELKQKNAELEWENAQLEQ"}, "[32]": {"target": "T32, 4H2610-bA", "T32 chain": "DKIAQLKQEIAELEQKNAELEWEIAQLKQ"}, "[33]": {"target": "T33, P9A", "T33 chain": "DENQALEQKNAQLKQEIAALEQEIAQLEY"}, "[34]": {"target": "T34, 4H3606-bA", "T34 chain": "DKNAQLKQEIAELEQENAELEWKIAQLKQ"}, "[35]": {"target": "T35, 4H1406-bA", "T35 chain": "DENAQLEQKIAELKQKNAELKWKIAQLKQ"}}, "data": [{"binder": "DENAQLEQENAELEQKIAELKWEIAQLEQ", "note": "[4H1193-bA]", "values": [{"measurement": "interaction score", "setting": "[1]", "result": -1.27}, {"measurement": "interaction score", "setting": "[2]", "result": -0.992}, {"measurement": "interaction score", "setting": "[3]", "result": -0.731}, {"measurement": "interaction score", "setting": "[4]", "result": -1.33}, {"measurement": "interaction score", "setting": "[5]", "result": 2.35}, {"measurement": "interaction score", "setting": "[6]", "result": -1.02}, {"measurement": "interaction score", "setting": "[7]", "result": -0.132}, {"measurement": "interaction score", "setting": "[8]", "result": -1.01}, {"measurement": "interaction score", "setting": "[9]", "result": 1.16}, {"measurement": "interaction score", "setting": "[10]", "result": -0.852}, {"measurement": "interaction score", "setting": "[11]", "result": -1.33}, {"measurement": "interaction score", "setting": "[12]", "result": -0.515}, {"measurement": "interaction score", "setting": "[13]", "result": -0.841}, {"measurement": "interaction score", "setting": "[14]", "result": 0.453}, {"measurement": "interaction score", "setting": "[15]", "result": 1.7}, {"measurement": "interaction score", "setting": "[16]", "result": -1.83}, {"measurement": "interaction score", "setting": "[17]", "result": -0.522}, {"measurement": "interaction score", "setting": "[18]", "result": -0.992}, {"measurement": "interaction score", "setting": "[19]", "result": -0.577}, {"measurement": "interaction score", "setting": "[20]", "result": -0.928}, {"measurement": "interaction score", "setting": "[21]", "result": -1.28}, {"measurement": "interaction score", "setting": "[22]", "result": 0.96}, {"measurement": "interaction score", "setting": "[23]", "result": 0.926}, {"measurement": "interaction score", "setting": "[24]", "result": 1.08}, {"measurement": "interaction score", "setting": "[25]", "result": -0.214}, {"measurement": "interaction score", "setting": "[26]", "result": -1.1}, {"measurement": "interaction score", "setting": "[27]", "result": -1.03}, {"measurement": "interaction score", "setting": "[28]", "result": 0.453}, {"measurement": "interaction score", "setting": "[29]", "result": -0.444}, {"measurement": "interaction score", "setting": "[30]", "result": -0.956}, {"measurement": "interaction score", "setting": "[31]", "result": -0.805}, {"measurement": "interaction score", "setting": "[32]", "result": -0.547}, {"measurement": "interaction score", "setting": "[33]", "result": 0.624}, {"measurement": "interaction score", "setting": "[34]", "result": -0.984}, {"measurement": "interaction score", "setting": "[35]", "result": -0.0377}]}]}
